T1: GmICE1 conserved domain (GmICE1-His) (Glycine max, UniProt B8XJY5 275-465)
T1 sequence: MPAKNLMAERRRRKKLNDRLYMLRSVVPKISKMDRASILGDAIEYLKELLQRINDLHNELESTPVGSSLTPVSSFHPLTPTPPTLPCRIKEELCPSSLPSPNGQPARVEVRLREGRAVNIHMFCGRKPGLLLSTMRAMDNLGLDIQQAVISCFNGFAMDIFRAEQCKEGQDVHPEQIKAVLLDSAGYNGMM

B1: GmSPS18 promoter 50 bp probe (-68 to -117) (dsDNA)
DNA 1: GTCTACACGTGTGTATCTCCATGCCCCACCATTCCTGCCACGTGGCAGTG
DNA 2: CACTGCCACGTGGCAGGAATGGTGGGGCATGGAGATACACACGTGTAGAC
B2: GmSPS8 promoter 50 bp probe (-66 to -115) (dsDNA)
DNA 1: AGTCTACACGTGTGTATCTCCATGGCCCACCATTCCTTGCCACGTGTCAA
DNA 2: TTGACACGTGGCAAGGAATGGTGGGCCATGGAGATACACACGTGTAGACT

Molecular target: T1, GmICE1 conserved domain (GmICE1-His)
Experiment: EMSA; weakened dose-dependently by unlabeled same-sequence competitor; EMSA kit (Thermo Fisher Scientific); buffer, salt, pH and temperature not stated
Settings: protein: recombinant; tags: His (PET-32a vector); chain copies: 2; label: biotin (forward strand); blunt

Binder | binding result
B1 | binds
B2 | binds

Source: article PMC10454306, “Genome-Wide Identification of GmSPS Gene Family in Soybean and Expression Analysis in Response to Cold Stress”
